Literature values as cited in paper PMC4134560.
pKd: −log10 of the molar value.

Target: p53 (Homo sapiens) (UniProt P04637)
Conditions: cited from earlier work

Substance: p53 (from UniProt P04637)
- pKd: > 6.00
